# Measured values reported in publication PMC533864, “Selective inhibition of c-Myb DNA-binding by RNA polymers”.
# B1: MRE probe (mim-1 promoter) (dsDNA)
# DNA 1: GCATTATAACGGTTTTTTAGCGC
# DNA 2: GCGCTAAAAAACCGTTATAATGC
# Assays:
# [1] = target: c-Myb R2R3 (Homo sapiens, UniProt P10242 89-192); test: EMSA; 20 mM Tris-HCl pH 8.0, 0.1 mM EDTA, 10% glycerol, 0.1 mM DTT, 0.005% Triton X-100, 50 mM NaCl, RNAguard 6-20 U, 20 uL, 25 C, 15 min; details: protein: recombinant; label: 32P
# [2] = target: c-Myb NR1R2R3 (Homo sapiens, UniProt P10242 1-192); test: as above; details: protein: recombinant; label: 32P
# Sequence of c-Myb NR1R2R3 (P10242 1-192): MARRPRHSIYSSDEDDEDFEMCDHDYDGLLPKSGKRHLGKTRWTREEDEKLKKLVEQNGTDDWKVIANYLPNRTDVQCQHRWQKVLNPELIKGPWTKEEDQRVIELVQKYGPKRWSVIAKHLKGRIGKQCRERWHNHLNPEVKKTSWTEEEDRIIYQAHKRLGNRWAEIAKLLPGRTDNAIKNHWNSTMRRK
# Sequence of c-Myb R2R3 (P10242 89-192): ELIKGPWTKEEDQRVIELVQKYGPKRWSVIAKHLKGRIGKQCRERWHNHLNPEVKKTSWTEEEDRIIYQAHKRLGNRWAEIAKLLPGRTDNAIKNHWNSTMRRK
binder,measurement,setting,value
B1,binding result,[1],binds
same,binding result,[2],binds
